The values that follow come from publication PMC12596195, “Mei5–Sae3 stabilizes both active and inactive forms of Dmc1 filaments independently of its impact on ATP hydrolysis” (Nucleic Acids Research, 2025).

Several values for one entry are separate records, joined by “and”; a condition that tells them apart may be missing. Equal entries are not always repeated.

For data set [1], the target named is T1, Dmc1-WT;Mei5-Sae3 (Saccharomyces cerevisiae;Saccharomyces …, UniProt P25453;P32489;P89114 1-334;1-222;1-91, |).
T1 sequence 1: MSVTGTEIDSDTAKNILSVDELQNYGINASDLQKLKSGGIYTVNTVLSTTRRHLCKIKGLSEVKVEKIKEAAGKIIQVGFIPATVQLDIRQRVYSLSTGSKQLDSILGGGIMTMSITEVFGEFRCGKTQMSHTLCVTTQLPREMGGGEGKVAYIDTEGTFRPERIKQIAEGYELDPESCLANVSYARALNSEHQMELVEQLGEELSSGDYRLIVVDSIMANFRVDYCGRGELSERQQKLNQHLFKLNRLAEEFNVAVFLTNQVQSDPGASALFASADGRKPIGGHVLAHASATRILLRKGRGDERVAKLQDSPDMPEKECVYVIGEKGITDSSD
T1 sequence 2: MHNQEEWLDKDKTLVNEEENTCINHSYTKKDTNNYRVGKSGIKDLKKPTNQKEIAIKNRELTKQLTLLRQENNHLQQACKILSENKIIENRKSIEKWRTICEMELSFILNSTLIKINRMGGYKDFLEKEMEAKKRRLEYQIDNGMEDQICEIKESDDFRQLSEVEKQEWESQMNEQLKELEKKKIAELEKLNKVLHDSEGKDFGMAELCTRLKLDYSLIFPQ
T1 sequence 3: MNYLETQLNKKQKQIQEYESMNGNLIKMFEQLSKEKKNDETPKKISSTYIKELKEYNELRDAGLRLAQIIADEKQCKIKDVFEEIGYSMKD
The experiment in a line: fluorescence polarization; AMP-PNP, 400 nM Mei5-Sae3; FP: 25 mM HEPES pH 7.5, 1 mM Mg2+, 1 mM ATP, 1 mM DTT, 50 mM NaCl (100 mM in Fig. 3), 100 ug/ml BSA, 0.02% NP-40, 70 uM Ca2+ or as indicated, 3 nM 84-nt ssDNA. Particulars: protein: recombinant;recombinant; tags: N-terminal 6xHis;N-terminal 6xHis on Mei5; label: 5' Alexa Fluor 488. (In general: Fluorescence polarisation rises when a labelled molecule tumbles more slowly, as on binding a larger partner.)

The target of the next data set is RecA (Escherichia coli, UniProt P0A7G6 1-353). The experiment in a line: fluorescence polarization; 100 mM NaCl (90% of binding remains); FP: 25 mM HEPES pH 7.5, 1 mM Mg2+, 1 mM ATP, 1 mM DTT, 50 mM NaCl (100 mM in Fig. 3), 100 ug/ml BSA, 0.02% NP-40, 70 uM Ca2+ or as indicated, 3 nM 84-nt ssDNA. The settings on record: label: 5' Alexa Fluor 488.
The target of the next data set is T2, Mei5-Sae3 (Saccharomyces cerevisiae, UniProt P32489;P89114 1-222;1-91).
T2 sequence 1: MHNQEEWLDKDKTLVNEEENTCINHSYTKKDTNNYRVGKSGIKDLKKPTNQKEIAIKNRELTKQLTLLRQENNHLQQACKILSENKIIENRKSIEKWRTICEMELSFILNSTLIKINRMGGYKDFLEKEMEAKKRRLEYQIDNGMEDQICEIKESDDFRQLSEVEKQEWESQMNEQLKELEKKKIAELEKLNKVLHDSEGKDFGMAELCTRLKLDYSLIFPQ
T2 sequence 2: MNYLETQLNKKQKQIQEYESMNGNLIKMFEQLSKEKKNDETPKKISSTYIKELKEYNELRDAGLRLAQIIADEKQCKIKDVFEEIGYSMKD
The experiment in a line: fluorescence polarization; titration; very low signal at 400 nM; FP: 25 mM HEPES pH 7.5, 1 mM Mg2+, 1 mM ATP, 1 mM DTT, 50 mM NaCl (100 mM in Fig. 3), 100 ug/ml BSA, 0.02% NP-40, 70 uM Ca2+ or as indicated, 3 nM 84-nt ssDNA. The settings on record: protein: recombinant; tags: N-terminal 6xHis on Mei5; copies: 1;1; label: 5' Alexa Fluor 488.

Data set [2] concerns the target T3, hRad51 (Homo sapiens, UniProt Q06609 1-339). Briefly: fluorescence polarization; ADP; FP: 25 mM HEPES pH 7.5, 1 mM Mg2+, 1 mM ATP, 1 mM DTT, 50 mM NaCl (100 mM in Fig. 3), 100 ug/ml BSA, 0.02% NP-40, 70 uM Ca2+ or as indicated, 3 nM 84-nt ssDNA. The settings on record: chain copies: 28; label: 5' Alexa Fluor 488.
Data set [3] deals with T1, Dmc1-WT;Mei5-Sae3. The experiment in a line: fluorescence polarization; ADP, 400 nM Mei5-Sae3; FP: 25 mM HEPES pH 7.5, 1 mM Mg2+, 1 mM ATP, 1 mM DTT, 50 mM NaCl (100 mM in Fig. 3), 100 ug/ml BSA, 0.02% NP-40, 70 uM Ca2+ or as indicated, 3 nM 84-nt ssDNA. The settings on record: protein: recombinant;recombinant; tags: N-terminal 6xHis;N-terminal 6xHis on Mei5; label: 5' Alexa Fluor 488.

The target of another data set is T4, Dmc1-E157D (Saccharomyces cerevisiae, UniProt P25453 1-334, E157D).
T4 sequence: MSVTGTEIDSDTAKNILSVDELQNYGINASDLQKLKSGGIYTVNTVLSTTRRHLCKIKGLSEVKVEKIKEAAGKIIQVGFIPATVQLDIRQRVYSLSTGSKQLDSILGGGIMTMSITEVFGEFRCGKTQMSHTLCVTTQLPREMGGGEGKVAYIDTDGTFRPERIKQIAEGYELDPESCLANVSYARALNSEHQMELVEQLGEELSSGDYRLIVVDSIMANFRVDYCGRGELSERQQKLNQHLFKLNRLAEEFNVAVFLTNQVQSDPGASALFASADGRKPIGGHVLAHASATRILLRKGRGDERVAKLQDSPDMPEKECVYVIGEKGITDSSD
Briefly: fluorescence polarization; ATP, 70 uM Ca2+, 50 mM NaCl, 30 C; comparable to WT; FP: 25 mM HEPES pH 7.5, 1 mM Mg2+, 1 mM ATP, 1 mM DTT, 50 mM NaCl (100 mM in Fig. 3), 100 ug/ml BSA, 0.02% NP-40, 70 uM Ca2+ or as indicated, 3 nM 84-nt ssDNA. Particulars: protein: recombinant; tags: N-terminal 6xHis; label: 5' Alexa Fluor 488.

The target in a further data set is RecA;Mei5-Sae3 (Escherichia coli;Saccharomyces …, UniProt P0A7G6;P32489;P89114 1-353;1-222;1-91, |). Briefly: fluorescence polarization; 400 nM Mei5-Sae3: no impact on Kd; FP: 25 mM HEPES pH 7.5, 1 mM Mg2+, 1 mM ATP, 1 mM DTT, 50 mM NaCl (100 mM in Fig. 3), 100 ug/ml BSA, 0.02% NP-40, 70 uM Ca2+ or as indicated, 3 nM 84-nt ssDNA. Particulars: protein: ;recombinant; tags: ;N-terminal 6xHis on Mei5; label: 5' Alexa Fluor 488.

Data set [4] has as its target T5, Dmc1-WT (Saccharomyces cerevisiae, UniProt P25453 1-334).
T5 sequence: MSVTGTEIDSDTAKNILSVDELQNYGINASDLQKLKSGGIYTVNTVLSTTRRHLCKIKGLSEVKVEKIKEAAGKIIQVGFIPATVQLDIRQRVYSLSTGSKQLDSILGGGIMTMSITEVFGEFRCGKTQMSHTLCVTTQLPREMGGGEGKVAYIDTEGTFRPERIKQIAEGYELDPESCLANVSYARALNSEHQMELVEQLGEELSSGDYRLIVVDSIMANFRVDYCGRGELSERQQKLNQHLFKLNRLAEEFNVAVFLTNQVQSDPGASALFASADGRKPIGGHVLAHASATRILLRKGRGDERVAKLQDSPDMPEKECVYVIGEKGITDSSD
The experiment in a line: fluorescence polarization; ATP, 1 mM Ca2+; FP: 25 mM HEPES pH 7.5, 1 mM Mg2+, 1 mM ATP, 1 mM DTT, 50 mM NaCl (100 mM in Fig. 3), 100 ug/ml BSA, 0.02% NP-40, 70 uM Ca2+ or as indicated, 3 nM 84-nt ssDNA. Particulars: protein: recombinant; tags: N-terminal 6xHis; label: 5' Alexa Fluor 488.

For data set [5], the target named is T5, Dmc1-WT. The experiment in a line: fluorescence polarization; ATP, 70 uM Ca2+; FP: 25 mM HEPES pH 7.5, 1 mM Mg2+, 1 mM ATP, 1 mM DTT, 50 mM NaCl (100 mM in Fig. 3), 100 ug/ml BSA, 0.02% NP-40, 70 uM Ca2+ or as indicated, 3 nM 84-nt ssDNA. The settings on record: protein: recombinant; tags: N-terminal 6xHis; label: 5' Alexa Fluor 488.
Data set [6] has as its target T5, Dmc1-WT. The experiment in a line: fluorescence polarization; ATP, 250 uM Ca2+; FP: 25 mM HEPES pH 7.5, 1 mM Mg2+, 1 mM ATP, 1 mM DTT, 50 mM NaCl (100 mM in Fig. 3), 100 ug/ml BSA, 0.02% NP-40, 70 uM Ca2+ or as indicated, 3 nM 84-nt ssDNA. Particulars: protein: recombinant; tags: N-terminal 6xHis; label: 5' Alexa Fluor 488.
The target in data set [7] is T5, Dmc1-WT. The experiment in a line: fluorescence polarization; ATP, 0 Ca2+; FP: 25 mM HEPES pH 7.5, 1 mM Mg2+, 1 mM ATP, 1 mM DTT, 50 mM NaCl (100 mM in Fig. 3), 100 ug/ml BSA, 0.02% NP-40, 70 uM Ca2+ or as indicated, 3 nM 84-nt ssDNA. Particulars: protein: recombinant; tags: N-terminal 6xHis; label: 5' Alexa Fluor 488.
In data set [8] the target is T1, Dmc1-WT;Mei5-Sae3. The experiment in a line: fluorescence polarization; ATP, 70 uM Ca2+, Mei5-Sae3 (400 nM, no own signal); FP: 25 mM HEPES pH 7.5, 1 mM Mg2+, 1 mM ATP, 1 mM DTT, 50 mM NaCl (100 mM in Fig. 3), 100 ug/ml BSA, 0.02% NP-40, 70 uM Ca2+ or as indicated, 3 nM 84-nt ssDNA. Particulars: protein: recombinant;recombinant; tags: N-terminal 6xHis;N-terminal 6xHis on Mei5; label: 5' Alexa Fluor 488.

The target in data set [9] is T3, hRad51. Briefly: fluorescence polarization; ATP; FP: 25 mM HEPES pH 7.5, 1 mM Mg2+, 1 mM ATP, 1 mM DTT, 50 mM NaCl (100 mM in Fig. 3), 100 ug/ml BSA, 0.02% NP-40, 70 uM Ca2+ or as indicated, 3 nM 84-nt ssDNA. The settings on record: chain copies: 28; label: 5' Alexa Fluor 488.

Broadly, the Kd is the equilibrium constant for the complex coming apart.

T3 sequence (Q06609 whole entry): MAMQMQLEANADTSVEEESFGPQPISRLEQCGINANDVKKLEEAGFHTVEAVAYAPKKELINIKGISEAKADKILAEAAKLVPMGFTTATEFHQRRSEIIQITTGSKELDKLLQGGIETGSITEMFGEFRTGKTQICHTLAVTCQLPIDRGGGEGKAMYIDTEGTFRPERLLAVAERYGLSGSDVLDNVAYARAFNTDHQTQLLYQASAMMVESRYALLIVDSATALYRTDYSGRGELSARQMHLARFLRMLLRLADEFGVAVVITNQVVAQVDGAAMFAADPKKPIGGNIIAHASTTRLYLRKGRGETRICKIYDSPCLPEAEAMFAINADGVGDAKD
RecA, sequence (P0A7G6 whole entry): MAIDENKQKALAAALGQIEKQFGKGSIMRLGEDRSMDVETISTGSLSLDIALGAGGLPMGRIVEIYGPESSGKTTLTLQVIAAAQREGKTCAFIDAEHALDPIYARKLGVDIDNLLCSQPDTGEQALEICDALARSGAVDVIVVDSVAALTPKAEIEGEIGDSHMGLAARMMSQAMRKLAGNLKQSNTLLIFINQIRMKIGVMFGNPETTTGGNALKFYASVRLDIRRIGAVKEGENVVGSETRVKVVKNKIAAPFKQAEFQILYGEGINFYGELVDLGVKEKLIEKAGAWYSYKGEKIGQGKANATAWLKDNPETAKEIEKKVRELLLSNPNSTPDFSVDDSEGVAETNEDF
RecA;Mei5-Sae3, sequence (P0A7G6 whole entry, one chain of several): as the sequence (P0A7G6 whole entry) above

B1: 84 nt-ssDNA (ssDNA)
DNA: GGTAGCGGTTGGGTGAGTGGTGGGGAGGGTCGGGAGGTGGCGTAGAAACATGATAGGAATGTGAATGAATGAAGTACAAGTAAA
In the case of B1, the “fold decrease in Kd” value with Dmc1-WT;Mei5-Sae3 [1] is ~1.5 fold lower Kd than Dmc1 alone. In addition, the binding result in the data set with RecA, with Mei5-Sae3, in the data set with Dmc1-E157D and with RecA;Mei5-Sae3 was “binds” in each case. Moreover, the Kd is 476 ± 20 nM with hRad51 [2]; 164 ± 13 nM in the data set with Dmc1-WT [4]; 966 nM and 933 nM in the data set with Dmc1-WT [5]; 472 nM and 508 nM with Dmc1-WT [6]; 1340 ± 113 nM in the data set with Dmc1-WT [7]; 512 ± 25 nM with Dmc1-WT;Mei5-Sae3 [8]. Besides, in the data set with hRad51 [9], the Kd stood at 342 ± 10 nM. The “fold decrease in Kd vs Dmc1 alone” value with Dmc1-WT;Mei5-Sae3 [3] was ~1.5 fold lower Kd than Dmc1 alone.
